Tests used:
[1] = molecular target: T1, MASP-3 serine protease (SP) domain (human, UniProt P48740-2 450-728, three N-linked oligosaccharide chains comprising two N-acetylglucosamine and five mannose residues); test: SPR; ecotin (1,000 RU) amine-coupled on a CM5 chip; proteases injected at 20 µl/min in 145 mM NaCl, 50 mM triethanolamine-HCl, pH 7.4, 0.005% surfactant P20; global fit to a 1:1 Langmuir model, at least five concentrations; apparent KD = kd/ka; details: both partners purified
T1 construct: numbers count on: the mature protein; Secreted with the melittin signal peptide, which was processed; also called MASP-3 SP; MASP-3 SP domain
T1 sequence (looked up): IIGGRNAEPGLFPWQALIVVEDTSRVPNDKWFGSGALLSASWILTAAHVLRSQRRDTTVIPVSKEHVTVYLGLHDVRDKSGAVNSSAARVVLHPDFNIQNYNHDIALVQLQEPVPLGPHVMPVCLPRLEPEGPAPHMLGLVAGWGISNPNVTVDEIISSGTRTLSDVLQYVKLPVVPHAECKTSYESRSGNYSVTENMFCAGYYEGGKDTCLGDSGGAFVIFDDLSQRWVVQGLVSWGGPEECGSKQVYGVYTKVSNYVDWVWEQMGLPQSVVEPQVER

[2] = molecular target: T2, MASP-2 CCP1/2-ap-SP fragment (human, UniProt O00187 298-686); test: as above; details: both partners purified
T2 construct: also called CCP1/2-ap-SP fragment of MASP-2; catalytic domain of MASP-2; source: baculovirus-infected insect cells, purified
T2 sequence (O00187 298-686): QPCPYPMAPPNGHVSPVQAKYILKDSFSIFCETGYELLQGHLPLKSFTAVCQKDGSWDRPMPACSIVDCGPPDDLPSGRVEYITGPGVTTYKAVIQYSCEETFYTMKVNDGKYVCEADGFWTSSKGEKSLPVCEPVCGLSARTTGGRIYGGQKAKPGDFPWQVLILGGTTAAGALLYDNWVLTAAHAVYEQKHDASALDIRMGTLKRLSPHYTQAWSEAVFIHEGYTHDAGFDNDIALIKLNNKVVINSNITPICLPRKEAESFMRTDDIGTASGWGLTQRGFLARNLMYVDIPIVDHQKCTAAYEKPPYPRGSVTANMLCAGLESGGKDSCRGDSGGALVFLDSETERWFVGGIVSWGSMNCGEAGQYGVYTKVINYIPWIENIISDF

[3] = molecular target: T3, Coagulation factor XIa (human plasma) (human, UniProt P03951 19-387; P03951 388-625); test: as above; details: both partners purified
T3 construct: coagulation factor XIa heavy chain, human plasma; coagulation factor XIa light chain (catalytic domain), human plasma; also called fXIa; source: bought: Calbiochem (human plasma)
T3 sequence (P03951 19-387, chain 1 of 2): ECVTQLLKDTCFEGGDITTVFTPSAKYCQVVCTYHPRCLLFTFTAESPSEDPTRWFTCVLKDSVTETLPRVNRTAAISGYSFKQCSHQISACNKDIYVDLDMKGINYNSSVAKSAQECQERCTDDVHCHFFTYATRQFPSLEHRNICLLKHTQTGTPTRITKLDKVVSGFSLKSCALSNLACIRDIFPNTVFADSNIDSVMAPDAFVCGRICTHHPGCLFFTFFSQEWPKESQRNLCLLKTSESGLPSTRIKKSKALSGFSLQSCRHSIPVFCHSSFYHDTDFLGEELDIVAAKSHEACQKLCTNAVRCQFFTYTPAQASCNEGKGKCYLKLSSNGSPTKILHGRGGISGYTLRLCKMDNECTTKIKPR
T3 sequence (P03951 388-625, chain 2 of 2): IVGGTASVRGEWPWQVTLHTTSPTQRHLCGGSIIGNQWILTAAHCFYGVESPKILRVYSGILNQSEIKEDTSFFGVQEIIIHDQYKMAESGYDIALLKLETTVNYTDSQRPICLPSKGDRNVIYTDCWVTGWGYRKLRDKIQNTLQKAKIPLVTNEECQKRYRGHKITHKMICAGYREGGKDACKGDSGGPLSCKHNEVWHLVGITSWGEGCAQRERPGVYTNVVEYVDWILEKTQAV

[4] = molecular target: the molecule itself; test: SEC; MASP-3 SP and ecotin preincubated 20 min at room temperature (equimolar, 225 pmol; also various molar ratios), TSK G3000 SW column in 145 mM NaCl, 50 mM triethanolamine-HCl, pH 7.4, 1 ml/min; peaks analysed by N-terminal sequencing and SDS-PAGE
[5] = molecular target: T1, MASP-3 serine protease (SP) domain; test: cell-based or functional assay

B1: Ecotin (E. coli pan-serine protease inhibitor) (natural protein)
chain: not shown
notes: residues numbered 1 onwards in the structure (P1 residue Met84); Homodimer (molecular mass 32 kDa as printed); also called ecotin dimer; source: bought: Gentaur Molecular Products
Kd [1]: 601 nM | koff [1]: 0.000806 s⁻¹ | kon [1]: 1340 M⁻¹ s⁻¹ | Kd [2]: 24.7 nM | koff [2]: 0.00228 s⁻¹ | kon [2]: 104000 M⁻¹ s⁻¹ | Kd [3]: 1.38 nM | koff [3]: 0.000169 s⁻¹ | kon [3]: 123000 M⁻¹ s⁻¹ | stoichiometry N [4]: 2 | inhibition of FGR-AMC cleavage by the MASP-3 SP domain after incubation with ecotin at a 1:1 molar ratio [5]: 82%
